Measurements: paper PMC7016264, “Redox requirements for ubiquitin-like urmylation of Ahp1, a 2-Cys peroxiredoxin from yeast” (Redox Biology, 2020)

B1: His-tagged Ahp1, wild-type (recombinant) [S. cerevisiae] / itself (parent)
chain: MSDLVNKKFPAGDYKFQYIAISQSDADSESCKMPQTVEWSKLISENKKVIITGAPAAFSPTCTVSHIPGYINYLDELVKEKEVDQVIVVTVDNPFANQAWAKSLGVKDTTHIKFASDPGCAFTKSIGFELAVGDGVYWSGRWAMVVENGIVTYAAKETNPGTDVTVSSVESVLAHL

Variants of: B1
Assay: SEC-MALS
Details: with itself

Row | Variant | screen value [kDa]
1 | chain 1 F58A | 22.8
2 | chain 1 F58A F95A | 20.4
3 | chain 1 F95A | 31.6
